Test results reported in article PMC6482001 (eLife, 2019).
Where two headings read alike, the source gives them in different places.

Experiments:
[1] = target: T1, GltTk (Thermococcus kodakarensis, UniProt Q5JID0); test: isothermal titration calorimetry; format: binding
T1 construct: gene TK0986; C-terminally His8-tagged (pBAD24-GltTk-His8), expressed in E. coli MC1061, purified in decylmaltoside-type detergent (DM) or reconstituted in proteoliposomes; homotrimer
Source text: (§1) isothermal titration calorimetry on GltTk

[2] = target: T1, GltTk; test: isothermal titration calorimetry; conditions: 300 mM NaCl, 100 mM KCl, pH 8.0, 25 °C, 0.15% DM; Na+-coupled binding; cited from earlier work
Source text: as §1

[3] = target: glutamate transporter homolog GltTk from Thermococcus kodakarensis (Thermococcus kodakarensis) (UniProt Q5JID0); test: crystal structure; GltTk with D-aspartate, 2.8 Å; hanging drop vapour diffusion at 5°C, 300 mM NaCl, 300 µM D-aspartate, protein 7 mg/ml in 10 mM Hepes KOH pH 8.0, 100 mM KCl, 0.15% DM; outward-oriented occluded state
[4] = substrate: N[C@H](CC(=O)O)C(=O)O; test: purified protein; conditions: 100 mM NaCl outside, pH 7.5, 3 µM valinomycin, labelled compound
[5] = substrate: N[C@@H](CC(=O)O)C(=O)O; test: purified protein; conditions: 100 mM NaCl outside, pH 7.5, 3 µM valinomycin, labelled compound

Molecule `N[C@H](CC(=O)O)C(=O)O` [D-aspartate] has a Kd [1] of 470 ± 170 nM.

In the case of `N[C@@H](CC(=O)O)C(=O)O` [L-aspartate], the Kd [2] is listed as 120 ± 40 nM.

Work on “glutamate transporter homolog GltTk from Thermococcus kodakarensis (from UniProt Q5JID0 1-430) (natural protein)” yielded a stoichiometry N [3] of 3.

B1: GltTk (Thermococcus kodakarensis KOD1) (protein)
chain: MGKSLLRRYLDYPVLWKILWGLVLGAVFGLIAGHFGYAGAVKTYIKPFGDLFVRLLKMLVMPIVLASLVVGAASISPARLGRVGVKIVVYYLATSAMAVFFGLIVGRLFNVGANVNLGSGTGKAIEAQPPSLVQTLLNIVPTNPFASLAKGEVLPVIFFAIILGIAITYLMNRNEERVRKSAETLLRVFDGLAEAMYLIVGGVMQYAPIGVFALIAYVMAEQGVRVVGPLAKVVGAVYTGLFLQIVITYFILLKVFGIDPIKFIRKAKDAMITAFVTRSSSGTLPVTMRVAEEEMGVDKGIFSFTLPLGATINMDGTALYQGVTVLFVANAIGHPLTLGQQLVVVLTAVLASIGTAGVPGAGAIMLAMVLQSVGLDLTPGSPVALAYAMILGIDAILDMGRTMVNVTGDLAGTVIVAKTEKELDESKWIS
B1 showed a Km [4] of 1.1 ± 0.11 µM and a Km [5] of 0.75 ± 0.17 µM.
